B1: Mouse Zt/g4 (antibody, from another filing, V domains shown)
VH: EVQLQQSGAELVKPGASVKLSCTTSGFNIIDTYIHWVNQKPDQGLEWIGRIDPADGNRKSDPKFQVKATITVDTSSNTAYLQLSSLTSGDTAVYYCARGYGNLNAMDSWGQGTSVTVSS
VL: DIQMNQSPSSLSASLGDTITITCHASQNINVWLNWYQQKPGNIPKLLIYKASNLHTGVPSRFSGSGSGTGFTLTISSLQPEDIATYYCQQGQSYPLTFGGGTKLEIK
B2: Humanized PCM5B14 H2L4 (IgG1/κ, designated as H5B14) (antibody, V domains shown)
VH: QVQLVQSGAEVKKPGATVKISCKVSGYTFTDYHMDWVQQAPGKGLEWMGDINPNNGGAIYNQKFKGRVTITADTSTDTAYMELSSLRSEDTAVYYCARSHYDYAGGAWFAYWGQGTLVTVSR
VL: EIVMTQSPGTLSLSPGERATLSCKSSQSLLFSGNQKNYLAWYQQKPGQAPRLLIYWASTRASGIPDRFSGSGSGTDFTLTISRLEPEDFAVYYCQQYYSFPRTFGQGTKLEIKR
notes: also called H5B14H2L4; Humanized 5B14

Experiments:
human RON receptor [1] = target: T1, human RON receptor (human, UniProt Q04912 25-1400); experiment: cell-based or functional assay
human RON receptor [2] = target: T1, human RON receptor; experiment: flow cytometry on HT29 cells, FITC-coupled anti-human IgG1 secondary
Experimental: Colon cancer HT29 cell line expressing ˜19,000 RON molecules per cell were used as the model. Mouse PCM5B14 was used as the positive control. Individual H5B14 clones at different concentrations were incubated with cells followed by addition of FITC-coupled anti-human IgG1 antibody. Fluorescence intensities from individual samples were analyzed using the BD flow cytometer. Results in FIG. 2 are the dose-dependent specific binding of individual H5B14s. […] Results in Table 1 show the individual values reflecting the binding affinity and sensitivity of individual H5B14 clones to human RON receptor.

Internalization efficacy of cell surface RON (EC50, hours), Breast T-47D (human RON receptor [1])	Internalization efficacy of cell surface RON (EC50, hours), Colon HT-29 (human RON receptor [1])	Internalization efficacy of cell surface RON (EC50, hours), Lung H358 (human RON receptor [1])	Internalization efficacy of cell surface RON (EC50, hours), Pancreatic L3.6p1 (human RON receptor [1])	EC50 (human RON receptor [2])	LogEC50 (human RON receptor [2])	Binder
23.5 h	11 h	7.47 h	14.1 h	–	–	B1
8.26 h	5.33 h	7.94 h	8.17 h	2.22 µg/mL	0.346 log(µg/ml)	B2
